Laboratory results as given in PMC4313621, “Hydrophobic mismatch sorts SNARE proteins into distinct membrane domains” (Nature Communications, 2015).
Ends that are not written are not given here.

Target: the molecule itself
Test: FRET or BRET; donor- (Rhodamine Red) and acceptor- (Atto647N) labelled peptides reconstituted together in 100 nm LUVs of C14:1, C16:1, C18:1 or C20:1 PC, without or with 30 mol% cholesterol; protein-to-lipid 1:1000; 50 mM HEPES, 150 mM KCl, pH 7.4

B1: Syntaxin 4 TMD (residues 262-297; sx-4TM) (peptide, UniProt Q12846 262-297, looked up)
peptide: ALENQKKARKKKVLIAICVSITVVLLAVIIGVTVVG
modifications: also: N-terminus: Rhodamine Red or Atto647N
notes: syntaxin 4 transmembrane domain with juxtamembrane stretch, Homo sapiens, residues 262-297; also called syntaxin 4 truncation mutant; source: synthetic peptide (Fmoc solid phase synthesis)
  binding result: binds
